Reference: patent publication US20190048080A1 (SHANGHAI KANDA BIOTECHNOLOGY, published 2019)

Target: T1, recombinant human CTLA-4-Fc fusion protein (R&D Systems) (human, UniProt P16410 37-162)
T1 construct: range 37-162; also called fusion protein CTLA-4/Fv; recombinant protein CTLA-4; not shown: IgG constant region (Fc) of the bought fusion protein
T1 sequence (looked up): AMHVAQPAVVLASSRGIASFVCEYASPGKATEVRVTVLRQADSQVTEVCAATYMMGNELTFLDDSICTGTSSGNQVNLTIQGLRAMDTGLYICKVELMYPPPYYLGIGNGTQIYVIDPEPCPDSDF
Assay: phage display panning on coated CTLA-4/Fc, then ELISA of purified scFv on coated recombinant CTLA-4

- binding result: binds
B1: human anti-CTLA-4 single-chain variable region (scFv) antibody (scFv)
scFv: QVQLVQSGGGVVQPGRSLRLSCAASGFTFSSYGMHWVRQAPGKGLEWVAVIWYDGSRQYYADSVKGRFTISRDDSKNTMYLQMNSLRAEDTAVYYCARGGFWGAFDIWGQGTMVTVSSGSGGGGSDVVMTQSPGTLSLSPGEGATLSCRASQHVISSYLAWYQQKPGQAPRLLVYGASSRDTGVSDRFTGSGSGTDFTLTISRLEPEDSAVYFCQQYGTSPWTFGQGTKLEIKR
notes: also called anti-CTLA-4 scFv; CTLA-4scFv
